Series [1] deals with MS2 coat protein. Nature of the series: apparent KD of MS2 coat protein, switch OFF state (with FMN for OFF switches, without FMN for ON switches); designed switch direction (-1 OFF switch, 1 ON switch): -1; higher = weaker reporter binding. The conditions noted are these: FMN input: 0 or 200 uM; Eterna round: R93 (includes R88 designs). The gist of the method: (§1)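 Normalised binding curves from single clusters were fitted, and the median fit for each design is given as apparent KD. The clusters held designed RNA switches transcribed on-chip from Illumina sequencing clusters. These were titrated with SNAP-549-labelled MS2 coat protein (twofold steps from 0.7 or 1.5 nM to 3 µM, 0.8–1.5 h to 10–20 min per step) in 100 mM Tris-HCl pH 7.5, 80 mM KCl, 4 mM MgCl2, without or with constant ligand.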

In series [2] the test system is MS2 coat protein. Kind of series: apparent KD of MS2 coat protein, switch ON state; designed switch direction (-1 OFF switch, 1 ON switch): -1; higher = weaker reporter binding. The note with it: FMN input: 0 or 200 uM; Eterna round: R93 (includes R88 designs). The gist of the method: as §1

As for “AAAAGCACAGGAUAUACAAAAAAAUGACGAAAGUCAUAGGGACAUGAGGAUCACCCAUGUAGAAGGGUGCAAAA [Mod of Meechl's... 64% 4]”, the entries for the “apparent KD of MS2 coat protein” value in the series on MS2 coat protein [1] and in the series on MS2 coat protein [2] were 0.44 µM and 0.197 µM, respectively.
Consider “AAAAGCUAAGGAUAUACAUGAGGAUCACCCAUGUAGAACAGUGUAUGGGUAAAGGCGCGUAGAAGGUAGAAAAG [Arbileat]”, for which the figures for the “apparent KD of MS2 coat protein” value with MS2 coat protein [1] and with MS2 coat protein [2] were 0.0421 µM and 0.0299 µM, respectively.
The like results for “AAAAUACAUGAGGAUCACCCAUGUGAGGAUAUCGUAAAGAAAGUGAUCAAAAGAAAUACGAGAAGGCACAUAAA [PK3]” were, in that order, 0.212 µM and 0.123 µM.
Turning to “AAAAUGGCAGGAUAUACUAAAAUAAAAAACUAUGCUAAAACACAUGAGGAUCACCCAUGUAGAAGGGCCAAAAA [AJ 5]”, the results for the “apparent KD of MS2 coat protein” value in the series with MS2 coat protein [1] and with MS2 coat protein [2] were 0.0188 µM and 0.0262 µM, respectively.
Consider “AAACCACAUGAGGAUCACCCAUGUGAGGAUAUGAACGAAAUAAAAUAAAAAUAAAAGUUCAGAAGGCACAAAAA [Mat - Exclusion 1 - Eli mod - D14]”, for which the “apparent KD of MS2 coat protein” value in the series on MS2 coat protein [1] is 0.0206 µM; in the series on MS2 coat protein [2], 0.0182 µM.
On the same counts, the results for “AAAGGACAUGAGGAUCACCCAUGUGAGGAUAUGACGUAAAUAAAGAAAGAAGAAAUCGUCAGAAGGCACACCUA [55%, Disencluded 2, 2]” are 0.0451 µM and 0.0407 µM.
The like results for “AAAGGACAUGAGGAUCACCCAUGUGAGGAUAUGCGAAAAAAAAAAAUAAAAAAAAAAAGUAGAAGGCACACCAA [Mat - Exclusion 1 - Eli mod - D57]” were, in that order, 0.128 µM and 0.0994 µM.
Take “AAAGGACGAGGAUAUACAUGAGGAUCACCCAUGUAAAAAACGUAAGAAAAGAAGUUAUGUAGAAGGCGUCCAAA [69%, Moding Meechl, 14]”: the “apparent KD of MS2 coat protein” value is 0.0206 µM in the series on MS2 coat protein [1] and 0.0155 µM in the series on MS2 coat protein [2].
On to “AAAGGACGAGGAUAUACAUGAGGAUCACCCAUGUAAAAAGCGUAGUAAAAGAACUUAUGUAGAAGGCGUCCAAA [Meechl Ex3 2 R2 v3]”, for which the results for the “apparent KD of MS2 coat protein” value with MS2 coat protein [1] and in the series with MS2 coat protein [2] were 0.137 µM and 0.0594 µM, respectively.
Take “AAAGGAUCAGGAUAUGUGUGGAAAAAGUGUGUCCAAAAAAAACAUGAGGAUCACCCAUGUAGAAGGGAUCCAAA [Mod 4 of Normal (20/19) by Nando, Round 1]”: the “apparent KD of MS2 coat protein” value with MS2 coat protein [1] came out at 0.26 µM; in the series with MS2 coat protein [2], 0.222 µM.
In the case of “AAAGGGUCAGGAUAUGUACGAACAACAAAACAAAUAACGAUACAGAAGGGACAUGAGGAUCACCCAUGUAUAAA [May 74]”, the “apparent KD of MS2 coat protein” value worked out at 0.0706 µM in the series with MS2 coat protein [1] and 0.0558 µM in the series on MS2 coat protein [2].
Regarding “AAAGGGUCAGGAUAUGUACGAACAACAAAACAAAUAACGGUACAGAAGGGACAUGAGGAUCACCCAUGUAUAAA [May 73]”, the entries for the “apparent KD of MS2 coat protein” value with MS2 coat protein [1] and with MS2 coat protein [2] were 0.0641 µM and 0.0519 µM, respectively.
For “AAAGGUUGAGGAUAUGCGUGGAAAAAGUGUAUUCAAAAAAAACAUGAGGAUCACCCAUGUAGAAGGCGACCAAA [MS2 Riboswitches On Chip Exclusion 2 wbt3]”, the results for the “apparent KD of MS2 coat protein” value in the series with MS2 coat protein [1] and in the series with MS2 coat protein [2] were 0.163 µM and 0.0619 µM, respectively.
On the same counts, the results for “AAAUGCUGAGGAUAUACAUGAGGAUCACCCAUGUGAAAUAAAAAAUGUGUGUAAGCGUGUAGAAGGCAGCAUAA [Exclusion 3.12 (FMN+ favored)]” are 0.0258 µM and 0.0571 µM.
Consider “AAAUGUCUAGGAUAUACAUGAGGAUCACCCAUGUGUAAAAAUAAAUACACAAAAGAAAGUAGAAGGAGACAAAA [Ex 3 May 13]”, for which the “apparent KD of MS2 coat protein” value in the series on MS2 coat protein [1] is 0.0473 µM; in the series on MS2 coat protein [2], 0.0224 µM.
The like results for “AAAUUGUCAGGAUAUCGUAUAACAUGGAAAACAUGGAGAUACGAGAAGGGACAUGAGGAUCACCCAUGUAAAAC [May 95]” were, in that order, 0.0874 µM and 0.0516 µM.
“AACAAACAUGAGGAUCACCCAUGUAAGGAUAUGCAACAAAAACAAAAAACAAAAAAAAGCAGAAGGUACAACAA [Amethyst 99]”: the “apparent KD of MS2 coat protein” value with MS2 coat protein [1] worked out at 0.0288 µM; in the series with MS2 coat protein [2], 0.0256 µM.

Source of the values: the supplement of paper PMC9170038.
